How the values were obtained:
Experiment in all cases: cell_activity
Details in all cases: HEK293T luciferase reporter, single TALE-TF
[1] = target: KLK3 TALE-A TALE-TF (VP64) (synthetic (Xanthomonas TALE)?) (UniProt Q56830)
[2] = tested on: KLK3 TALE D TALE-TF (VP64) (synthetic (Xanthomonas TALE)?)
[3] = target: KLK3 TALE F TALE-TF (VP64) (synthetic (Xanthomonas TALE)?) (UniProt Q56830)
[4] = target: KLK3 TALE E TALE-TF (VP64) (synthetic (Xanthomonas TALE)?) (UniProt Q56830)
[5] = target: CEACAM5 TALE D TALE-TF (VP64) (synthetic (Xanthomonas TALE)?) (UniProt Q56830)
[6] = target: CEACAM5 TALE B TALE-TF (VP64) (synthetic (Xanthomonas TALE)?) (UniProt Q56830)
[7] = tested on: CEACAM5 TALE F TALE-TF (VP64) (synthetic (Xanthomonas TALE)?)
[8] = target: CEACAM5 TALE E TALE-TF (VP64) (synthetic (Xanthomonas TALE)?) (UniProt Q56830)
[9] = tested on: CEACAM5 TALE C TALE-TF (VP64) (synthetic (Xanthomonas TALE)?)
[10] = target: IL1RN TALE-D TALE-TF (VP64) (synthetic (Xanthomonas TALE)?) (UniProt P14727)
[11] = target: IL1RN TALE-A TALE-TF (VP64) (synthetic (Xanthomonas TALE)?) (UniProt Q56830)
[12] = tested on: IL1RN TALE-C TALE-TF (VP64) (synthetic (Xanthomonas TALE)?)
[13] = tested on: IL1RN TALE-B TALE-TF (VP64) (synthetic (Xanthomonas TALE)?)

## KLK3 promoter reporter (hg19 chr19:51357466-51358177)
[1]
  activity: 25.1 fold RLA
[2]
  activity: 45.8 fold RLA
[3]
  activity: 4.57 fold RLA
[4]
  activity: 2.17 fold RLA

## CEACAM5 promoter reporter (hg19 chr19:42211804-42212651)
[5]
  activity: 4.59 fold RLA
[6]
  activity: 11.6 fold RLA
[7]
  activity: 4.7 fold RLA
[8]
  activity: 2.41 fold RLA
[9]
  activity: 3.74 fold RLA

## IL1RN promoter reporter (hg19 chr2:113874366-113875462)
[10]
  activity: 5.76 fold RLA
[11]
  activity: 14.4 fold RLA
[12]
  activity: 6.75 fold RLA
[13]
  activity: 12 fold RLA

From US20140309177
